Consider three molecules from paper PMC9443353.

Series [1] concerns the target T1, ZIKV NS1 (Zika virus, UniProt A0A024B7W1 795-1146). In words: ELONA; protein on Cu2+-coated plate; Hill slope fit; ELONA: borate buffer (60 mM in selection), 37 °C, 30 min, pH not stated; specificity: selection buffer, filtration, qPCR; FET: human serum as gate electrolyte. As to conditions: chain copies: 2; label: digoxigenin.
The target of series [2] is T1, ZIKV NS1. In words: graphene FET; human serum; Hill n = 0.8 ± 0.2; sequential NS1 addition; ELONA: borate buffer (60 mM in selection), 37 °C, 30 min, pH not stated; specificity: selection buffer, filtration, qPCR; FET: human serum as gate electrolyte. Particulars: chain copies: 2. (In qPCR the cycle at which signal appears reflects the starting amount.)
For series [3], the target named is YFV NS1 (Yellow fever virus, UniProt P03314 779-1130).
Series [4] has as its target DENV1 NS1 (Dengue virus serotype 1, UniProt P17763 776-1127). In words: filter binding with qPCR; 100 nM aptamer, 40 pmol protein; ELONA: borate buffer (60 mM in selection), 37 °C, 30 min, pH not stated; specificity: selection buffer, filtration, qPCR; FET: human serum as gate electrolyte. As to conditions: chain copies: 2.
In series [5] the target is DENV3 NS1 (Dengue virus serotype 3, UniProt Q6YMS4 774-1125). The description is as above.

As a reminder, the Kd is the concentration at which binding is half-saturated. High values mean weaker binding, low ones tighter binding.

B1: ZIKV60 (digoxigenin-labeled) (ssDNA)
DNA: CTTCTGCCCGCCTCCTTCCGGGCCCCGGGGGGTGTCCAGGCCCATGCGTCGTCCGCGGGGAGACGAGATAGGCGGACACT
B1: in series [1], the Kd stood at 2.28 ± 0.28 nM.

B2: ZIKV60 (pyrene-modified) (ssDNA)
DNA: B1 DNA
modifications: pyrene
In the case of B2, the “apparent K (half saturation)” value in series [2] was 1.4 ± 0.3 pg/mL.

B3: ZIKV60 (ssDNA)
DNA: B1 DNA
As for B3, the binding signal in series [3] is 14.2 ratio ZIKV NS1/YFV NS1 bound; in series [4], 14.2 ratio ZIKV NS1/DENV1 NS1 bound; in series [5], 13.4 ratio ZIKV NS1/DENV3 NS1 bound.
